Results published in US20230406921A1 (MABWELL SHANGHAI BIOSCIENCE, published 2023).
Where a chain is given by its changes, count along the chain named.

B1: anti-human CD47/PD-L1 bispecific antibody 2MW1531-p (bispecific antibody)
heavy 1: EVQLVQSGAEVKKPGASVKVSCKASGYKFTNYVMSWVRQAPGQRLEWMGYINPYNDAIKYNEKFTGRVTITRDTSASTAYMELSSLRSEDTAVYYCAREGDFYANYGRLGFAYWGQGTLVTVSSASTKGPSVFPLAPCSRSTSESTAALGCLVKDYFPEPVTVSWNSGALTSGVHTFPAVLQSSGLYSLSSVVTVPSSSLGTQTYTCNVDHKPSNTKVDKRVESKYGPPCPPCPAPEFLGGPSVFLFPPKPKDTLMISRTPEVTCVVVDVSQEDPEVQFNWYVDGVEVHNAKTKPREEQYNSTYRVVSVLTVLHQDWLNGKEYKCKVSNKGLPSSIEKTISKAKGQPREPQVYTLPPSQKEMTKNQVSLTCLVKGFYPSDIAVEWESNGQPENNYKTTPPVLDSDGSFFLYSKLTVDKSRWQEGNVFSCSVMHEALHNRYTQKSLSLSLGK
heavy 2: EVQLVQSGAEVKKPGATVKISCKVSGFNIKDIYMHWVQQAPGKGLEWMGRIDPANANTKYDPKFQDRVTITADTSTNTAYMELSSLRSEDTAVYYCASGQLGPLGFDYWGQGTTVTVSSASTKGPSVFPLAPCSRSTSESTAALGCLVKDYFPEPVTVSWNSGALTSGVHTFPAVLQSSGLYSLSSVVTVPSSSLGTQTYTCNVDHKPSNTKVDKRVESKYGPPCPPCPAPEFLGGPSVFLFPPKPKDTLMISRTPEVTCVVVDVSQEDPEVQFNWYVDGVEVHNAKTKPREEQYNSTYRVVSVLTVLHQDWLNGKEYKCKVSNKGLPSSIEKTISKAKGQPREPQVYTLPPSQEEMTKNQVSLTCLVKGFYPSDIAVEWESNGQPENNYKTTPPVLDSDGSFFLYSKLTVDKSRWQEGNVFSCSVMHEALHNHYTQESLSLSLGK
VL: DIQMTQSPSSLSASVGDRVTITCRASQDISNYLNWYQQKPGKAPKLLLYYTSRLHSGVPSRFSGSGSGTDYTLTISSLQPEDFATYFCQQGAGRPYTFGGGTKVEIK
notes: Knobs-into-holes: heavy chain A hz140-H-A (anti-CD47), heavy chain B hz182-H-B (anti-PD-L1), common light chain
B2: anti-human CD47/PD-L1 bispecific antibody 2MW1531-m7 (bispecific antibody, human IgG4 S228P, kappa)
heavy 1: B1 heavy 1
heavy 2: B1 heavy 2
VL: DIQMTQSPSSLSASVGDRVTITCRASQDISNYLNWYQQKPGKAPKLLLYYTSRLHSGVPSRFSGSGSGTDYTLTISSLQPEDFATYFCQQGAGFPYTFGGGTKVEIKRTVAAPSVFIFPPSDEQLKSGTASVVCLLNNFYPREAKVQWKVDNALQSGNSQESVTEQDSKDSTYSLSSTLTLSKADYEKHKVYACEVTHQGLSSPVTKSFNRGEC
notes: Knobs-into-holes with a common light chain
B3: hz140-Hm13/hz182-Lm7 (antibody, V domains shown)
VH: EVQLVQSGAEVKKPGASVKVSCKASGYKFTNYVMSWVRQAPGQRLEWMGYINPYNDAIKYNEKFTGRVTITRDTSASTAYMELSSLRSEDTAVYYCAREGDFYANYGRLGFAYWGQGTLVTVSS
VL: DIQMTQSPSSLSASVGDRVTITCRASQDISNYLNWYQQKPGKAPKLLLYYTSRLHSGVPSRFSGSGSGTDYTLTISSLQPEDFATYFCQQGAGFPYTFGGGTKVEIKR
B4: hz140-Hm13/hz182-Lm5 (antibody, V domains shown)
VH: B3 VH
VL: B3 VL with A92D, F94R
B5: hz140-Hm13/hz182-Lm6 (antibody, V domains shown)
VH: B3 VH
VL: B3 VL with G93T, F94R
B6: hz140-Hm13/hz182-Lm10 (antibody, V domains shown)
VH: B3 VH
VL: B3 VL with F83I
B7: hz140-Hm13/hz182-Lm11 (antibody, V domains shown)
VH: B3 VH
VL: B3 VL with F83I, A92D, G93T
B8: hz140-Hm13/hz182-Lm8 (antibody, V domains shown)
VH: B3 VH
VL: B3 VL with F94R, Y96R
notes: also called h182Lmut8
B9: hz140-Hm13/hz182-L (antibody, V domains shown)
VH: B3 VH
VL: B1 VL
B10: hz140-Hm13/hz182-Lm2 (antibody, V domains shown)
VH: B3 VH
VL: B3 VL with L73F, F94R
B11: hz140-Hm13/hz182-Lm4 (antibody, V domains shown)
VH: B3 VH
VL: B3 VL with S30T, F94R
B12: hz140-Hm13/hz182-Lm1 (antibody, V domains shown)
VH: B3 VH
VL: B3 VL with L48I, F94R
notes: also called hz182-Lml
B13: hz140-Hm13/hz182-Lm9 (antibody, V domains shown)
VH: B3 VH
VL: B3 VL with A92D, G93T
B14: hz140-Hm13/hz182-Lm3 (antibody, V domains shown)
VH: B3 VH
VL: B3 VL with F83I, F94R
B15: 140Hm9/hz140L (Table 2) (antibody, V domains shown)
VH: B3 VH with E1Q, S35H, D56E, A57G
VL: B1 VL with S30T, L48I, L73F, F83I, A92D, G93T, R94F, Y96R
notes: also called hz140-Hm/hz140L
B16: 140Hm10/hz140L (Table 2) (antibody, V domains shown)
VH: B3 VH with E1Q
VL: B1 VL with S30T, L48I, L73F, F83I, A92D, G93T, R94F, Y96R
notes: also called hz140-Hm/hz140L
B17: h140Hm13/h140Lm8 (antibody, V domains shown)
VH: B3 VH
VL: B1 VL with S30T, L48I, L73F, F83I, A92D, G93T
notes: also called h140Lmut8; mut8
B18: h140Hm13/h140Lm14 (antibody, V domains shown)
VH: B3 VH
VL: B1 VL with S30T, L48I, H55Q, L73F, F83I, A92D, G93T, R94Y
B19: h140Hm13/h140Lm12 (antibody, V domains shown)
VH: B3 VH
VL: B1 VL with S30T, L48I, H55Q, L73F, F83I, A92D, G93T
B20: h140Hm13/h140Lm16 (antibody, V domains shown)
VH: B3 VH
VL: B1 VL with S30T, L48I, H55Q, L73F, F83I, A92D, G93T, R94S
B21: h140Hm13/h140Lm15 (antibody, V domains shown)
VH: B3 VH
VL: B1 VL with S30T, L48I, H55Q, L73F, F83I, A92D, G93T, R94K
B22: h140Hm13/h140Lm11 (antibody, V domains shown)
VH: B3 VH
VL: B1 VL with S30T, L48I, H55S, L73F, F83I, A92D, G93T
B23: h140Hm13/h140Lm18 (antibody, V domains shown)
VH: B3 VH
VL: B1 VL with S30T, L48I, H55Q, L73F, F83I, A92D, G93T, R94N
B24: h140Hm13/h140Lm17 (antibody, V domains shown)
VH: B3 VH
VL: B1 VL with S30T, L48I, H55Q, L73F, F83I, A92D, G93T, R94E
B25: h140Hm13/h140Lm10 (antibody, V domains shown)
VH: B3 VH
VL: B1 VL with S30T, L48I, L73F, F83I
notes: also called h140Lmut10; mut10
B26: h140Hm13/h140Lm13 (antibody, V domains shown)
VH: B3 VH
VL: B1 VL with S30T, L48I, L73F, F83I, A92D, G93T, R94F

Target: T1, CD47 on the surface of tumor cells (human, UniProt Q08722 19-323)
T1 construct: whole, on cells; Same protein as m4; also called CD47 antigen on the surface of U937 and CCRF cells; SKOV-3
Assay: FACS, SKOV-3 tumor cells (no PD-L1), antibody 100 nM
Description: In the experiment of analyzing the binding to human red blood cells, the antibody was used at a concentration of 1000 nM; and in the experiment of analyzing the binding to tumor cells, the antibody was used at a concentration of 100 nM.

| Binder | Binding to tumor cells (MFI) |
| --- | --- |
| B1 | 35400 |
| B2 | 28200 |

Target: T1, CD47 on the surface of tumor cells
Assay: FACS, tumor cells, 2 nM
Description: (§1) The difference between the binding of the mutant to CD47 on the surface of tumor cells and CD47 on the surface of red blood cells was evaluated.

| Binder | FACS (MFI) |
| --- | --- |
| B3 | 17800 |
| B4 | 39900 |
| B5 | 15900 |
| B6 | 19000 |
| B7 | 20100 |
| B8 | 39100 |
| B9 | 25800 |
| B10 | 30400 |
| B11 | 28500 |
| B12 | 15500 |
| B13 | 16400 |
| B14 | 30000 |

Target: T2, recombinant antigen of the extracellular region of CD47 (Sino Biological, Cat: 12283-H08H) (human, UniProt Q08722 19-139)
T2 construct: extracellular domain; also called recombinant CD47 extracellular region; CD47 recombinant protein
Assay: Fortebio BLI, recombinant CD47 extracellular region

| Binder | Kd [nM] | koff [s⁻¹] | kon [M⁻¹ s⁻¹] |
| --- | --- | --- | --- |
| B15 | 3.92 | 0.000847 | 216000 |
| B16 | 7.83 | 0.00202 | 258000 |

Target: T2, recombinant antigen of the …
Assay: Fortebio BLI, antibody on AHC sensor, CD47 extracellular region 100 nM;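 further: antibody held on the sensor through anti-human Fc capture, CD47 antigen in solution, association and dissociation phases each lasting 300 s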
Description: The affinity between the obtained mutant antibody and the CD47 recombinant protein was determined by Fortebio. The antibody was immobilized on the surface of a sensor with the anti-human Fc capture antibody (AHC Sensor), and reacted with the recombinant antigen of the extracellular region of CD47 (with a working concentration of 100 nM) in the liquid phase. The duration for binding and dissociation was both 300 seconds. The kinetic parameters were determined.

| Binder | Kd [nM] | koff [s⁻¹] | kon [M⁻¹ s⁻¹] |
| --- | --- | --- | --- |
| B9 | 6.2 | 0.00163 | 263000 |

Target: T3, CD47 on the surface of human red blood cells (human, UniProt Q08722 19-323)
T3 construct: whole, on cells; Same protein as m3, on red blood cells; also called hRBC; RBC
Assay: FACS, RBC, 200 nM
Description: as §1

| Binder | FACS (MFI) |
| --- | --- |
| B3 | 349 |
| B4 | 3310 |
| B5 | 695 |
| B6 | 326 |
| B7 | 321 |
| B8 | 40800 |
| B9 | 2060 |
| B10 | 1670 |
| B11 | 1840 |
| B12 | 2320 |
| B13 | 1750 |
| B14 | 874 |

Target: T1, CD47 on the surface of tumor cells
Assay: FACS, tumor cells, 1 nM
Description: as §1

| Binder | FACS (MFI) |
| --- | --- |
| B17 | 26400 |
| B18 | 7520 |
| B19 | 26400 |
| B20 | 12200 |
| B21 | 15700 |
| B22 | 19400 |
| B23 | 9920 |
| B24 | 11200 |
| B25 | 40900 |
| B26 | 10300 |

Target: T2, recombinant antigen of the …
Assay: Fortebio BLI, recombinant CD47

| Binder | Kd [nM] | kon [M⁻¹ s⁻¹] |
| --- | --- | --- |
| B3 | 16.6 | 201000 |
| B4 | 667 | 79900 |
| B5 | 12.5 | 114000 |
| B6 | 5.14 | 176000 |
| B7 | 53.1 | 103000 |
| B8 | 12.9 | 234000 |
| B9 | 5.97 | 125000 |
| B10 | 1410 | 94700 |
| B11 | 989 | 87900 |
| B12 | 7.06 | 134000 |
| B13 | 38.9 | 132000 |
| B14 | 16.7 | 145000 |

Target: PD-L1 (human, UniProt Q9NZQ7 19-239, limits assumed)
Assay: Fortebio BLI

Sequence of PD-L1 (Q9NZQ7 19-239 limits assumed): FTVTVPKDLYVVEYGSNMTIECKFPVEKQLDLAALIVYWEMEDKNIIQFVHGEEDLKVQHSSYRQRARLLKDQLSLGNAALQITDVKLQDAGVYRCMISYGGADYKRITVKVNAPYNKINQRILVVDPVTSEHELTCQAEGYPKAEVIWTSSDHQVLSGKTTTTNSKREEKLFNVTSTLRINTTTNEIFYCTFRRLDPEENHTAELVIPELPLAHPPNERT

| Binder | Kd [nM] | koff [s⁻¹] | kon [M⁻¹ s⁻¹] |
| --- | --- | --- | --- |
| B1 | 0.474 | 0.000147 | 310000 |
| B2 | 0.917 | 0.00021 | 230000 |

Target: T2, recombinant antigen of the …
Assay: Fortebio BLI

| Binder | Kd [nM] | koff [s⁻¹] | kon [M⁻¹ s⁻¹] |
| --- | --- | --- | --- |
| B1 | 8.56 | 0.00131 | 153000 |
| B2 | 62.1 | 0.00814 | 131000 |
